Changes are numbered by the printed parent chain.
B1: S009-F7.11.11 (antibody, human IgG1, kappa, V domains shown)
VH: EVQLQQSGPELVKPGASVKIPCKASGYTITDYNMDWVKQSRGKSLEWIGDVFPYNGDSIYNQKFEGRATLTVDKYSSTAYMELRGLTSEDTAVYFCARRKTGTGYFDVWGTGTTVTVSS
VL: QLVLTQSPAIMSASPGEKVTLTCSASSSVSSTYLSWYLQKPGSSPKLWIYSTSNLASGVPARFSGSGSGTSYSLTISSMEAEDAASYFCHQWSSYPYTFGGGTKLEIKR
notes: human-murine chimeric antibody, human IgG1/kappa constant regions
B2: S009-F7.44.20 (antibody, human IgG1, kappa, V domains shown)
VH: EVQLQQSGPELVKPGASVKIPCKASGYTFTDYNMDWVKQSHGKSLEWIGDINPSTGGTIYNQKFNGKATLTEDKSASTVYMEFRSLTSDDTAVYYCARRRIGTGYFDVWGTGTTVTVSS
VL: B1 VL with L2I, I10L, S30I, T32S, L38Q, W48L, S51R, Y95F
notes: as for B1
B3: S009-F7.61.21 (antibody, human IgG1, kappa, V domains shown)
VH: DVQLQQSGPELVEPGASVRIPCKAAGHTFTDYNVDWVKQSHGQSLEWIGDVNPNTDGAIYNQKFEGKATLTVDTSSSTAYMELRSLTSEDTAVYFCARRRLGQGGFDSWGQGTTLTVSS
VL: B1 VL with L2V, S24G, V29L, S30I, T32K, S35Y, L38Q, L105V
notes: as for B1
B4: S009-F7.12.13 (antibody, human IgG1, kappa, V domains shown)
VH: EVQLQQSGPELVKPGASVKIPCKASGYTFTDYNMDWVKQSHGKGLEWIGDINPNTDDTIYNQKFNGKATLTVDKSSSTAYMELRSLTSEDTAVYYCSRRLIGTGYFDVWGTGTTVTVSS
VL: B1 VL with L2I, S30I, S35C, L38R, K46E, S94N, E106G, I107M
notes: as for B1
B5: S009-F7.66.12 (antibody, human IgG1, kappa, V domains shown)
VH: QIPLQQSGPELVKPGASVRISCKASDYAFSSSWMNWVKQRPEKGLEWIGRIFVESGNTHYNDKFNGKATLTADKSSRTAYIQLSSLTSEDSAVYFCTRENIFYHGHSSWFAYWGQGTLVTVSA
VL: DIVLTQSPASLVVSLGQRATISCRAGESVDDFGISYVHWYQQKPGQPPKLLIYRAANLESGIPARFSGSGSRTDFTLTINPVETDDVAIYYCQQNNKDPFTFGSGTKLEIKR
notes: as for B1
B6: S009-F7.65.13 (antibody, human IgG1, kappa, V domains shown)
VH: EVQLQQSGPELVKPGTSVKILCKASGDTFTAYNMDWVKQRHGQSLEWIGDINPNTDSTIYNQKFEGKAILTVDKSSSTAYMELRSLTSEDTAVYYCARRKLGRGYFDYWGQGTTLTVSS
VL: QIVLTQSPAIMSASPGEKVTMTCSVNLSVRYIYWYQQKPGSSPRLLIHDTSNLASGVPVRFSGSGSGTSYSLTISRMEAEDAATYYCQQWSSFPYTFGGGTKLEIKR
notes: as for B1
B7: S009-F7.53.2 (antibody, human IgG1, kappa, V domains shown)
VH: EVQLQQSGPELVKPGASVKIPCKTSGYTFTDYNMDWVKQSHGKSLEWIGDINPNTDGAIYNQKFQNKATLTVDKSSSTAYMELRSLTSEDTAVYYCTRRKLGRKFFDYWGQGTTLTVSS
VL: QIVLTQSPAIMSASPGEQVTMTCSASSSVGYMNWYQQKPGSSPRLLIYDTSNLASGVPVHFSGSGSGTSYSLTISRMEAAFAATYYCQQWYVYPYTFGGGTKLEIKR
notes: as for B1
B8: S009-F7.26.15 (antibody, human IgG1, kappa, V domains shown)
VH: DVQLQESGPGLVKPSQTVFLTCTVTGISITTGNYRWSWIRQFPGNKLEWIGYIYYTGFITYNPSLTSRTTITRDTPKNQFFLEMKSLTAEDTATYYCARDDYDYDVFAYWGQGTLVTVSA
VL: DIQMTQSPASLSASVGETVTITCRASGNIHNYLAWYHQKQGKSPQFLVYKAKTLADGVPSRFSGSGSGTQYSLKINRLQPEDFGSYYCQHFLSIPLTFGAGTKLELKR
notes: as for B1
B9: S009-F7.69.8 (antibody, human IgG1, kappa, V domains shown)
VH: EVHLQQSGPELVKPGASVRIPCKASGYTFTDYNMDWVKQSHGKSLEWIGDINPDNGGTIYTQKFKGKATLTVDKSSSTAYMELRSLTSEDTAVYYCARRLHYYGSSGLDYWGQGTTLTVSS
VL: DIQMTQSPASLSAYVGETVTITCRASGNIHNYLAWYQQKQGKSPQLLVYNAKTLADGVPSRFSGSGSGTQYSLKINSLQPEDFGSYYCQHFWSTVWTFGGGTKLEIKR
notes: as for B1
B10: S009-F7.21.16 (antibody, human IgG1, kappa, V domains shown)
VH: QVQLQQPGTELVKPGASVKLSCKASGYTFTTFWMHWVKQRPGQGLEWIGGVNPTNGGTNYNEKFRTKATLTVDKSSTTADMQLSSLTSEDSAVYYCAPHYISSRPGFAYWGQGTLVTVSG
VL: DIVMTQSQKFMSTSGGDRVSVTCKASQNVGTNVAWYQQKPGQSPKALIYSASYRYSGVPDRFTGSGSGTDFILTISNVQSEDLAEYFCQQYNSYPLTFGGGTKLEIKR
notes: as for B1
B11: S009-F7.48.1 (antibody, human IgG1, kappa, V domains shown)
VH: QVQLQQPGTELVKPGASVKLSCKASGYTFTSYWMHWVKQRPGQGLEWIGNINPSNGGTNNNENFKSKATLTVDTSSSTAYMQLSSLTSEDSAVYYCVRNGYHGYWYFDVWGTGTTVTVSS
VL: B10 VL with G15V, K39Q, G66V, I72T
notes: as for B1
B12: S009-F7.25.19 (antibody, human IgG1, kappa, V domains shown)
VH: QVQLQQPGTELVKPGASVKLSCKASGYTFTSYWMHWVKQRPGQGLEWIGNIIPSNGGTKYNEKFKSKATLTVDKSSSTAYMQLSSLTSEDSAVYYCSPHYYGGSPGFAYWGQGTLITVSA
VL: B10 VL with G15V, T22I, I72T
notes: as for B1
B13: S009-F7.30.5 (antibody, human IgG1, kappa, V domains shown)
VH: QVQLQQPKTELVKPGASVKLSCKASGYIFTTYWMHWVKQRPGQGLEWIGNVNPSNGGTMYNEKFERRATLTVDKSSSTADMQLSSLTSEDSAVYYCVPHYIGSRPGFAYWGQGTLVTVSG
VL: B10 VL with G15V, Q38H, I48L, I72T, S76T
notes: as for B1
B14: S009-F7.33.24 (antibody, human IgG1, kappa, V domains shown)
VH: B10 VH with T31S, F32Y, G50N, T54S, T58S, R65K, T66N, T77S, S84N, S102G
VL: B10 VL with G15V, V33I, I72T, S76T, L104V
notes: as for B1
B15: S009-F7.67.12 (antibody, human IgG1, kappa, V domains shown)
VH: QVQLQQPGTELVKPGASVRLSCRASGYSFSSYWMHWVKQRPGQGLEWLGNINPTTGDINYNEKFRNRATLAVDKSSTTAYLQLTSLTSEDSAVYFCVRHDGFLWGQGTTLTVSS
VL: DIQMTQSPASLSASVGETVTITCRASENIYSYLAWYQQKQGKSPQLLVYYAKTLAEGVSSRFSGSGSGTQFSLKINSLQPEDFGTYYCQHQFGTPRTFGGGTKLEIRR
notes: as for B1
B16: S009-F7.6.17 (antibody, human IgG1, kappa, V domains shown)
VH: QVQLQQSGAELARPGASVKMSCKASGYTFTTYTMHWVKQRPGQGLEWIGYISPTGDFTKYNQKFKDKATLTTDKSSNTAFMQLSSLTSEDSAVYYCARWNGTVWFAYWGQGTLVTVSA
VL: DIVMTQSQKFMSTSVGDRVTVTCKASQALGTNVAWYQQKPGQSPKVLIYSASYRYSGVPYRFAGGGSGTDFTLTITNVQSEDLAEYFCQQYNNYPLTFGAGTKLELKR
notes: as for B1
B17: S009-F7.23.19 (antibody, human IgG1, kappa, V domains shown)
VH: EVKLVESGGGLVQPGGSLSLSCAASGFTFTDYYMSWVRQPPGKALEWLGFIRSKANAYTTEYSASVKGRFTISRDNSQSILYLQMNDLRAEDSATYYCARYYYYGSGYVWYFDVWGTGTTVTVSS
VL: B10 VL with G15V, N28S, S43F, I72T, S76I, G100A, I106L
notes: as for B1
B18: S009-F7.41.18 (antibody, human IgG1, kappa, V domains shown)
VH: QVQLQQPGTELVKPGASVKLSCKASDYTFTSYWMHWVKQRPGQGLEWIGSINPSNGDTYYNEKFKNKATLTVDKSSSTAYMQLSSLTSDDSAVYYCARGWYFDVWGTGTTVTVSS
VL: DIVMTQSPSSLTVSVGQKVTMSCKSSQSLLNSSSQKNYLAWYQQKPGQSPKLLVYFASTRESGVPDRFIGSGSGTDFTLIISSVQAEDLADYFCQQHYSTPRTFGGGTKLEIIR
notes: as for B1
B19: S009-F2.38.12 (antibody, human IgG1, kappa, V domains shown)
VH: QVQLQQPGTELVKPGASVKLSCKASGYTFTSYWMHWVKQRPGQGLEWIGNINPSNGGTNYNEKIKNKATLTVDKSSSTAYMQLSSLTSEDSAVYYCARWNYYGNYPFDYWGQGTTLTVSS
VL: DIVMTQSQKFMSTTVGDRVSITCKASQNVGTAVAWYQQKPGQSPKLLIYSASNRYTGVPDRFTGSGSGTDFTLTISNMQSEDLADYFCQQYSSYPLTFGAGTKLELKR
notes: Human-murine chimeric antibody, human IgG1/kappa constant regions
B20: S009-F2-56.12 (antibody, human IgG1, kappa, V domains shown)
VH: DVQLQESGPGMVKPSQSLSLTCTVTGYSITSGYDWHWIRHFPGNKLEWMGYISYSGSTNYNPSLKSRISITHDTSKNHFFLKLKSVTTEDTATYYCARGTGPDYWGQGTTLTVSS
VL: DIVMTQSQKFMSTSVGDRVSITCKASQNVRTAVAWYQQKPGQSPKALIHLPSNRHTGVPDRFTGSGSGTDFTLTISNVQSEDLADYFCLQHWNYPLTFGGGTKLEIKR
notes: as for B19

Target: T1, human MSLN-FL-his protein (human, UniProt Q13421 296-580)
T1 construct: made in HEK293E cells, purified on nickel column; also called hMSLN-FL-his; human MSLN full-length protein; not shown: His tag
Assay: SPR (Biacore), antibody captured on Protein A chip;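 note: flow cell at 25 °C, antigen injected for 240 s at five concentrations from 200 nM downward, dissociation followed up to 600 s, double-referenced, fitted with Langmuir 1:1 model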
T1 sequence (Q13421 other isoform, or with tags, fused parts or gaps): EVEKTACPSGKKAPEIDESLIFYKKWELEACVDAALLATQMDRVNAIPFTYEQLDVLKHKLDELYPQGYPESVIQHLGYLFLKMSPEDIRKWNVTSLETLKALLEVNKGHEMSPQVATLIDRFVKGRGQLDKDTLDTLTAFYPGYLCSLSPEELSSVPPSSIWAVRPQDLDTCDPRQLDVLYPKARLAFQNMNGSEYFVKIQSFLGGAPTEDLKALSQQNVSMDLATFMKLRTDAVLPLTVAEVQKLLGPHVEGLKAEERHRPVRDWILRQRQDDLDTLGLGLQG

| Kd [nM] | koff [s⁻¹] | kon [M⁻¹ s⁻¹] | Binder |
| --- | --- | --- | --- |
| 0.181 | 0.00024 | 1.33e+06 | B1 |
| 3.01 | 0.00106 | 351000 | B2 |
| 5.03 | 0.00154 | 306000 | B3 |
| 40.5 | 0.00892 | 220000 | B4 |
| 13.1 | 0.00236 | 180000 | B5 |
| 1.44 | 0.000538 | 374000 | B6 |
| 3.27 | 0.00065 | 199000 | B7 |
| 0.2 | 0.000975 | 4.88e+06 | B8 |
| 6.51 | 0.00447 | 687000 | B9 |
| 1.69 | 0.000773 | 458000 | B10 |
| 17.8 | 0.000413 | 23100 | B11 |
| 2.71 | 0.00113 | 417000 | B12 |
| 3.83 | 0.000705 | 184000 | B13 |
| 10.2 | 0.00506 | 498000 | B14 |
| 0.602 | 0.00065 | 1.08e+06 | B15 |
| 1.18 | 0.000389 | 329000 | B16 |
| 13.6 | 0.00695 | 511000 | B17 |
| 0.418 | 8.35e-05 | 200000 | B18 |

Target: T2, human MSLN-FL-his protein (human, UniProt Q13421 296-580)
T2 construct: also called human MSLN full-length protein; hMSLN-FL-his; not shown: His tag
Assay: ELISA, coated MSLN full-length;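 note: binding of chimeric antibodies to plate-bound antigen, read by TMB colour after acid stop, antibody incubated 2 h at 37 °C, negative control antibody run alongside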
T2 sequence (Q13421 other isoform, or with tags, fused parts or gaps): as above

| OD450 at 0.0001 nM [OD450] | OD450 at 0.001 nM [OD450] | OD450 at 0.01 nM [OD450] | OD450 at 0.1 nM [OD450] | OD450 at 1 nM [OD450] | OD450 at 10 nM [OD450] | OD450 at 100 nM [OD450] | OD450 at none (no antibody) [OD450] | Binder |
| --- | --- | --- | --- | --- | --- | --- | --- | --- |
| 0.06 | 0.09 | 0.46 | 1.85 | 2.56 | 2.43 | 2.57 | 0.06 | B19 |
| 0.06 | 0.07 | 0.16 | 0.37 | 0.41 | 0.37 | 0.4 | 0.07 | B20 |

From US20250250357A1 (NANJING ZAIMING PHARMACEUTICAL, published 2025)
